Measured values from patent publication US20250011455A1 (HANGZHOU BANGSHUN PHARMACEUTICAL, published 2025).
Positions count from the first letter of the chain named. Names and notes keep the numbering of the source. One block for each binder: values may come before it.

Columns and labels:
[1] = target: T1, hCD39-ECD-His (ACRO, CD9-H52H4) (human, UniProt P49961 38-478); experiment: SPR, Biacore 8K, antibody captured by anti-human IgG Fc, hCD39-ECD-His as analyte
T1 construct: extracellular domain; Bought protein; also called recombinant antigen; target antigen; not shown: His tag
T1 sequence (looked up): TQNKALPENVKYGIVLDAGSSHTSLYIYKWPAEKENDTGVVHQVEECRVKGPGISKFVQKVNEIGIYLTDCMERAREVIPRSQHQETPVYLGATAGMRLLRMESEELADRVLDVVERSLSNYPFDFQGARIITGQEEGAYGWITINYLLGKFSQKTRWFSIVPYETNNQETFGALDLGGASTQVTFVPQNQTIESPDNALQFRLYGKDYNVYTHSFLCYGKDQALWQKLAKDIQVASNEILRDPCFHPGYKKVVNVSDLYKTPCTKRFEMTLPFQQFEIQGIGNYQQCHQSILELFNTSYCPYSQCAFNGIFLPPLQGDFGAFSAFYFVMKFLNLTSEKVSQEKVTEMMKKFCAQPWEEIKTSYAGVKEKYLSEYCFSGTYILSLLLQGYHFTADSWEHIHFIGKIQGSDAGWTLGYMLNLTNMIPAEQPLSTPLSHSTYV
Description: The binding kinetics between humanized antibodies and a recombinant antigen were tested using Biacore 8K (GE, biomolecule interaction analyzer). Specifically, an anti-human IgG Fc antibody was directly immobilized on a biosensor chip to capture a test antibody. The antigen hCD39-ECD-His (ACRO, CD9-H52H4) was used as the mobile phase, and 7 concentration gradients (at an initial concentration of 200 nM, 2-fold gradient dilution) were used. The association rate constant ka (M⁻¹ s⁻¹) and dissociation rate constant kd (s⁻¹) were determined. Then, based on the formula KD=kd/ka and the kinetic rate constants, the equilibrium dissociation constant KD (M) of the reaction between the antibody and the relevant target protein was calculated. The humanized antibodies of the present invention maintained high affinity of the chimeric antibody F03 for the target antigen.

[2] = target: T2, human CD39 on the cell surface (human, UniProt P49961 1-510); experiment: FACS on SK-MEL-28 cells (natural human CD39)
T2 construct: whole, on cells; also called hCD39; NTPDase 1
T2 sequence (looked up): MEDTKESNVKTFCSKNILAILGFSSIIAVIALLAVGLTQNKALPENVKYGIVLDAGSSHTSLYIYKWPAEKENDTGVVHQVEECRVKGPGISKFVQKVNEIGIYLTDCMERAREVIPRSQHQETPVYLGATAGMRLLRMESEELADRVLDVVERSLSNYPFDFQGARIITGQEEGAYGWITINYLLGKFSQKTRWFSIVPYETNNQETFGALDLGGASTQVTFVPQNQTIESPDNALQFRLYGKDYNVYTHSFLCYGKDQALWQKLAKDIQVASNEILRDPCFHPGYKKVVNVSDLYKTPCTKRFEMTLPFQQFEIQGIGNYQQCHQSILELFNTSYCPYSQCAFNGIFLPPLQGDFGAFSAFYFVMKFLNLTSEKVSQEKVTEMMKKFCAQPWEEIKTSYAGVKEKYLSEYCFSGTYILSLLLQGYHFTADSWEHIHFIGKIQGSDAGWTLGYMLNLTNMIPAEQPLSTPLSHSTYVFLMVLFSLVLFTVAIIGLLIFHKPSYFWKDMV

[3] = target: T2, human CD39 on the cell surface; experiment: cell-based or functional assay
[4] = target: T2, human CD39 on the cell surface; experiment: FACS on CHOK1-hCD39 cells, FITC-labelled goat anti-human IgG Fc secondary antibody, mean fluorescence intensity (MFI)
Description: The binding of the chimeric antibody F03 of the present invention to CD39 on the cell membrane surface was assayed by FACS. Specifically, CHOK1-hCD39 cells were collected and added to a 96-well plate at 1-3×10⁵ cells/well, the serially diluted chimeric antibody F03 (diluted with 1×PBS to 16.7 μg/mL as an initial concentration, 3-fold gradient dilution) was added, and the mixture was incubated at 4° C. for 30 min; after washing with PBS, an FITC-labeled goat anti-human IgG Fc secondary antibody (Jackson Immunoresearch, 109095008) diluted at 1:200 was added, and the resulting mixture was incubated at 4° C. for 30 min; after washing with PBS, the cell fluorescence intensity was detected using an FACS instrument (Beckman). Data were processed by GraphPad software.

- Kd [1]: 2.67 nM
- koff [1]: 0.000252 s⁻¹
- kon [1]: 94300 M⁻¹ s⁻¹
- EC50 [2]: 2.07 nM
- Enzymatic activity inhibition (EC50 nM) [3]: 0.09 nM
- EC50 [4]: 2.19 µg/mL
B1: chimeric antibody F03 (antibody, human IgG4 S228P, kappa, V domains shown)
VH: QVQLQQPGAELVKPGASVKLSCKTSGYTFTNYWMYWVKHRPGRGLEWIGRIAPSSGATKYNEKFKNKATLTVDKPSSTAYMQLSSLTSEDSAVYYCARSGIYYDYDWFFDVSGTGTTVTVSS
VL: DIQMTQSPSSLSASLGGKVTITCKASQDINKYIGWYQHAPGKGPRLLIHYTSTLQPGIPSRFSGSGSGRDYSLSISNLEPEDIATYYCLQYHALLFTFGSGTKLELKR
notes: Variable regions of murine mF03 on human IgG4 (S228P) and human kappa constant regions; expressed in CHO-S cells

- Kd [1]: 3.68 nM
- koff [1]: 0.000331 s⁻¹
- kon [1]: 89900 M⁻¹ s⁻¹
- EC50 [2]: 1.12 nM
- Enzymatic activity inhibition (EC50 nM) [3]: 0.06 nM
B2: humanized antibody F03-12 (antibody, human IgG4 S228P, kappa, V domains shown)
VH: QVQLVQSGAEVKKPGASVKVSCKASGYTFTNYWMYWVRQAPGQGLEWMGRIAPSSGATKYNEKFKNRVTLTVDTSISTAYMELSRLRSDDTAVYYCARSGIYYDYDWFFDVWGQGTTVTVSS
VL: DIQMTQSPSSLSASVGDRVTITCKASQDINKYIGWYQQKPGKAPKLLIHYTSTLQPGVPSRFSGSGSGRDYTFTISSLQPEDIATYYCLQYHALLFTFGQGTKLEIKR
notes: Human IgG4 (S228P) and human kappa constant regions

- EC50 [2]: 1 nM
- Enzymatic activity inhibition (EC50 nM) [3]: 0.06 nM
B3: humanized antibody F03-8 (antibody, human IgG4 S228P, kappa, V domains shown)
VH: B2 VH with M48I, V68A
VL: B2 VL with R69T, Y71F
notes: as for B2

- EC50 [2]: 1.27 nM
- Enzymatic activity inhibition (EC50 nM) [3]: 0.09 nM
B4: humanized antibody F03-6 (antibody, human IgG4 S228P, kappa, V domains shown)
VH: B2 VH with L70M, V72R
VL: B2 VL with R69T, Y71F
notes: Human IgG4 (S228P) heavy chain constant region and human kappa constant region

- Kd [1]: 4.2 nM
- koff [1]: 0.000336 s⁻¹
- kon [1]: 80100 M⁻¹ s⁻¹
- EC50 [2]: 0.94 nM
- Enzymatic activity inhibition (EC50 nM) [3]: 0.03 nM
B5: humanized antibody F03-11 (antibody, human IgG4 S228P, kappa, V domains shown)
VH: B2 VH with L70M, V72R
VL: B2 VL
notes: as for B2

- EC50 [2]: 1 nM
- Enzymatic activity inhibition (EC50 nM) [3]: 0.09 nM
B6: humanized antibody F03-13 (antibody, human IgG4 S228P, kappa, V domains shown)
VH: B2 VH with M48I, V68A
VL: B2 VL
notes: as for B2

- Kd [1]: 3.33 nM
- koff [1]: 0.000176 s⁻¹
- kon [1]: 52800 M⁻¹ s⁻¹
- EC50 [2]: 1.11 nM
- Enzymatic activity inhibition (EC50 nM) [3]: 0.02 nM
B7: humanized antibody F03-15 (antibody, human IgG4 S228P, kappa)
heavy: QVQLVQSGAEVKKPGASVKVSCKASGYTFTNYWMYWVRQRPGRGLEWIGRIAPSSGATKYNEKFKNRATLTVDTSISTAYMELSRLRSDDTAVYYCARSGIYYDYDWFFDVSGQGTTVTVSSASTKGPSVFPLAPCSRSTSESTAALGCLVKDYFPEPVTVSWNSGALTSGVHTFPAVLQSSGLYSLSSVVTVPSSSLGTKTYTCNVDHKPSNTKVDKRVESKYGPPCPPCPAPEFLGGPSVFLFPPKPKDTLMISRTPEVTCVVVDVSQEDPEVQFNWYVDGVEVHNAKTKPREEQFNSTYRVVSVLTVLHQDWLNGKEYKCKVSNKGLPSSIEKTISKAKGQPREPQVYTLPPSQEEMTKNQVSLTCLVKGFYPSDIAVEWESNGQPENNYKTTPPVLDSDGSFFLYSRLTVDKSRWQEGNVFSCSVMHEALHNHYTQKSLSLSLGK
light: DIQMTQSPSSLSASVGDRVTITCKASQDINKYIGWYQQKPGKAPKLLIHYTSTLQPGVPSRFSGSGSGRDYTFTISSLQPEDIATYYCLQYHALLFTFGQGTKLEIKRTVAAPSVFIFPPSDEQLKSGTASVVCLLNNFYPREAKVQWKVDNALQSGNSQESVTEQDSKDSTYSLSSTLTLSKADYEKHKVYACEVTHQGLSSPVTKSFNRGEC
notes: as for B2

- EC50 [2]: 0.89 nM
- Enzymatic activity inhibition (EC50 nM) [3]: 0.15 nM
B8: humanized antibody F03-7 (antibody, human IgG4 S228P, kappa, V domains shown)
VH: B2 VH
VL: B2 VL with R69T, Y71F
notes: as for B2

- Kd [1]: 4.43 nM
- koff [1]: 0.00031 s⁻¹
- kon [1]: 69800 M⁻¹ s⁻¹
- EC50 [2]: 0.79 nM
- Enzymatic activity inhibition (EC50 nM) [3]: 0.05 nM
B9: humanized antibody F03-14 (antibody, human IgG4 S228P, kappa)
heavy: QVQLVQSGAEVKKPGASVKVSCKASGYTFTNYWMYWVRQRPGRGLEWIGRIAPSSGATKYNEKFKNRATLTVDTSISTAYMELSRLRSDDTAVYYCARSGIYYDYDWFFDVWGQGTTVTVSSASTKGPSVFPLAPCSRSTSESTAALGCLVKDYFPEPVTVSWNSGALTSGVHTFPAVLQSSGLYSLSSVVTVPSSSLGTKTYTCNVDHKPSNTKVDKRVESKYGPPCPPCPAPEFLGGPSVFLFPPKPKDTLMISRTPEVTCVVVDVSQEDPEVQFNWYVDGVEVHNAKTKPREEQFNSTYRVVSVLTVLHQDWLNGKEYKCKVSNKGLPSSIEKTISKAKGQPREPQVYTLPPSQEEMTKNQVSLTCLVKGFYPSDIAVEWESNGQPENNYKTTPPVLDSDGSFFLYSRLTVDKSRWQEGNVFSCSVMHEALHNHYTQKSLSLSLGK
light: B7 light
notes: as for B2
